Measured values as given in PMC4361550, “Biophysical Analysis of Anopheles gambiae Leucine-Rich Repeat Proteins APL1A^1, APL1B and APL1C and Their Interaction with LRIM1” (PLoS ONE, 2015).

Target: the molecule itself
Assay: SEC; Superdex 75 (10/300), proteins at 1 mg/ml, 100 mM NaCl, 20 mM HEPES pH 7.5; apparent molecular weight against mass standards

B1: APL1B LRR domain (APL1B-LRR) (domain or fragment, Anopheles gambiae, UniProt A7URS4 21-370, looked up)
chain: GQLSYKSMHLTPFTLSALLASFHKVEVLNLNGLQIEEIDTNAFAYAHTIQKLYMRFNVIRYLPPHVFQNVPLLTVLMLDRNDLSSLPPGIFHNTPKLTMLSMSNNNLERIEDDTFQATTSLQNLQLSSNRLTHVDLALIPSLFHVNVSYNLLSTLAIPIAVEELDASHNSINVVRGPVNVELTILKLQHNNLTDTAWLLNYPGLTDVDLSYNQLEIITIHHFVTMQRLERLHVSNNRLVAFDLYGRPIPTLKVLDLSHNHLMWVEHNQAQFDKLQYLYLDHNSIVTLKLSTSHTIKNLTLSHNDWDCNSLRALFRNVARPVVDDADQYCKIDYHLEHGLCCKESDKPYLD
modifications: N-linked glycosylation (predicted at Asn166, Asn211, Asn317; N-acetylglucosamine resolved at Asn166)
notes: APL1B of Anopheles gambiae, allele from strain G3, LRR domain; cloned as residues 1-370 with its signal peptide; the crystallized protein comprises APL1B 21-370 and a C-terminal 6xHis tag; Model in PDB 4XGO holds residues 25-364 (chain A) and 27-364 (chain B); source: T. ni cells (baculovirus, Bac-to-Bac), purified (Talon, MonoS, SEC); not shown: 6xHis, C-terminal, kept
In the case of B1, the “stoichiometry N” value is reported as 2.
